The record followed here is patent US20260056186A1 (JIANGSU HENGRUI PHARMACEUTICALS, published 2026).

Where two headings read alike, the source gives them in different places.

What is called EC50 is the concentration giving half of the maximal effect. Lower therefore signals higher potency in that assay.

Assay [1] has as its target T1, APRIL (Acro Biosystems, Cat: APL-H52D1) (UniProt O75888 115-250, limits assumed).
T1 construct: also called ARPIL
T1 sequence (looked up): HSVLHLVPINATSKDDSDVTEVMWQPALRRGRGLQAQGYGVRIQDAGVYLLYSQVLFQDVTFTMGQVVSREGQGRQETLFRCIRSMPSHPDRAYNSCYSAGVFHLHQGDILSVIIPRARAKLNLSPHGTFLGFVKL
The experiment in a line: ELISA, APRIL coated at 1 ug/mL, anti-human Fc-HRP, OD450. As to the method: (§1) The capabilities of B613301, B613302, and B613303, which are fusion proteins of anifrolumab and TACI-BCMA, to bind to BAFF and APRIL were assessed by ELISA as follows: [0548] BAFF (PeproTech, Cat: 310-13) or ARPIL (Acro Biosystems, Cat: APL-H52D1) was diluted to 1 μg/mL with PBS, and a 96-well plate (Costar, Cat: 3590) was coated with the dilution overnight at 4° C. The plate was washed with PBST and blocked with Blocking Buffer (PBST containing 1% BSA) at 37° C. for 1 h. The plate was tapped. The test antibodies were diluted with Blocking Buffer. Incubation was performed at 37° C. for 1.5 h. The plate was washed with PBST. An HRP-mouse anti-human Fc antibody (GenScript, Cat: A01854-200) was diluted with Blocking Buffer. Incubation was performed at 37° C. for 40 min. The plate was washed with PBST. 100 μL of TMB substrate solution (Biopanda, Cat: TMB-S-003) was added, and color development was performed at 37° C. for 3 min. 100 μL of ELISA stop solution (Solarbio, Cat: C1058) was added. OD450 was measured.

Assay [2] has as its target T1, APRIL (Acro Biosystems, Cat: APL-H52D1). The experiment in a line: ELISA, APRIL coated; reference telitacicept; range told of the 3 fusion proteins, upper end tied to B613301 by Table 8. As to the method:
as §1
In general terms: In an ELISA, binding on a coated surface is turned into a signal by an enzyme label.

The target is the same in assay [3]. Briefly: ELISA, APRIL coated; reference telitacicept; range told of the 3 fusion proteins, lower end tied to B613302 by Table 8. On the procedure: as §1
In assay [4] the target is T2, BAFF (PeproTech, Cat: 310-13) (UniProt Q9Y275 134-285). The experiment in a line: ELISA, BAFF coated; reference telitacicept. On the procedure: as §1, with “TACI-BCMA” for “B613301, B613302, and B613303, which are”, “(B575701, B575702, B575703,” for “of anifrolumab”, “B575704)” for “TACI-BCMA,”, “follows:” for “follows: [0548]”
T2 sequence (Q9Y275 134-285 limits assumed): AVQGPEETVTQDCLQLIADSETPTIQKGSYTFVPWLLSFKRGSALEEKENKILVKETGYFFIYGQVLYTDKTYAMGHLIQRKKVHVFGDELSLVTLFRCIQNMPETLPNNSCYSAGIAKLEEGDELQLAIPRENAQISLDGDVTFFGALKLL
(§2) The capability of B575702 to bind to BAFF was consistent with that of B575704, and their EC₅₀ values decreased to ¼ of that of telitacicept. The capability of B575701 to bind to BAFF was consistent with that of B575703, and their EC₅₀ values decreased to ½ of that of telitacicept.

The target in assay [5] is T2, BAFF (PeproTech, Cat: 310-13). The experiment in a line: ELISA, BAFF coated at 1 ug/mL, anti-human Fc-HRP, OD450. On the procedure: as §1, with “TACI-BCMA” for “B613301, B613302, and B613303, which are”, “(B575701, B575702, B575703,” for “of anifrolumab”, “B575704)” for “TACI-BCMA,”, “follows:” for “follows: [0548]”
as §2

The target of assay [6] is T1, APRIL (Acro Biosystems, Cat: APL-H52D1). The experiment in a line: ELISA, APRIL coated at 1 ug/mL, anti-human Fc-HRP, OD450. As to the method:
as §1, with “TACI-BCMA” for “B613301, B613302, and B613303, which are”, “(B575701, B575702, B575703,” for “of anifrolumab”, “B575704)” for “TACI-BCMA,”, “follows:” for “follows: [0548]”
(§3) The capabilities of the 4 fusion proteins to bind to APRIL were all stronger than that of telitacicept, and their EC₅₀ values decreased to ¼ to ⅓ of that of telitacicept.
This is another data set of the same source.

Assay [7] shares this target. Briefly: ELISA, APRIL coated; reference telitacicept; range told of the 4 fusion proteins, upper end tied to B575703 by Table 5. As to the method:
as §1, with “TACI-BCMA” for “B613301, B613302, and B613303, which are”, “(B575701, B575702, B575703,” for “of anifrolumab”, “B575704)” for “TACI-BCMA,”, “follows:” for “follows: [0548]”
as §3

B1: B613301 (other)
heavy: EVQLVQSGAEVKKPGESLKISCKGSGYIFTNYWIAWVRQMPGKGLESMGIIYPGDSDIRYSPSFQGQVTISADKSITTAYLQWSSLKASDTAMYYCARHDIEGFDYWGRGTLVTVSSASTKGPSVFPLAPSSKSTSGGTAALGCLVKDYFPEPVTVSWNSGALTSGVHTFPAVLQSSGLYSLSSVVTVPSSSLGTQTYICNVNHKPSNTKVDKRVEPKSCDKTHTCPPCPAPEFEGGPSVFLFPPKPKDTLMISRTPEVTCVVVDVSHEDPEVKFNWYVDGVEVHNAKTKPREEQYNSTYRVVSVLTVLHQDWLNGKEYKCKVSNKALPASIEKTISKAKGQPREPQVYTLPPSRDELTKNQVSLTCLVKGFYPSDIAVEWESNGQPENNYKTTPPVLDSDGSFFLYSKLTVDKSRWQQGNVFSCSVMHEALHNHYTQKSLSLSPGK
light: EIVLTQSPGTLSLSPGERATLSCRASQSVSSSFFAWYQQKPGQAPRLLIYGASSRATGIPDRLSGSGSGTDFTLTITRLEPEDFAVYYCQQYDSSAITFGQGTRLEIKRTVAAPSVFIFPPSDEQLKSGTASVVCLLNNFYPREAKVQWKVDNALQSGNSQESVTEQDSKDSTYSLSSTLTLSKADYEKHKVYACEVTHQGLSSPVTKSFNRGECGGGGSGGGGSLSCRKEQGKFYDHLLRDCISCASICGQHPKQCAYFCENKLRSPGMLQMAGQCSQNEYFDSLLHACIPCQLRCSSNTPPLTCQRYCNASVTNSVKGTNA
notes: Fusion protein of anifrolumab and TACI-BCMA
In assay [1], B1 yielded a 50% effective concentration (EC50) of 0.201 nM and an Emax of 2.49. The “EC50 relative to telitacicept” value in assay [2] was determined as 0.167 fold.

B2: B613302 (other)
heavy: B1 heavy
light: EIVLTQSPGTLSLSPGERATLSCRASQSVSSSFFAWYQQKPGQAPRLLIYGASSRATGIPDRLSGSGSGTDFTLTITRLEPEDFAVYYCQQYDSSAITFGQGTRLEIKRTVAAPSVFIFPPSDEQLKSGTASVVCLLNNFYPREAKVQWKVDNALQSGNSQESVTEQDSKDSTYSLSSTLTLSKADYEKHKVYACEVTHQGLSSPVTKSFNRGECGGGGSGGGGSMLQMAGQCSQNEYFDSLLHACIPCQLRCSSNTPPLTCQRYCNASVTNSVKGTNALSCRKEQGKFYDHLLRDCISCASICGQHPKQCAYFCENKLRSPG
notes: as for B1
In assay [1], B2 displayed an EC50 of 0.124 nM and an Emax of 2.52. The “EC50 relative to telitacicept” value in assay [3] came out at 0.1 fold.

B3: B575703 (Fc fusion)
chain: SRVDQEERFPQGLWTGVAMRSCPEEQYWDPLLGTCMSCKTICNHQSQRTCAAFCRSLSCRKEQGKFYDHLLRDCISCASICGQHPKQCAYFCENKLRSPVNLPPELMLQMAGQCSQNEYFDSLLHACIPCQLRCSSNTPPLTCQRYCNASVTNSVKGTNADKTHTCPPCPAPEAEGAPSVFLFPPKPKDTLMISRTPEVTCVVVDVSHEDPEVKFNWYVDGVEVHNAKTKPREEQYNSTYRVVSVLTVLHQDWLNGKEYKCKVSNKALPSSIEKTISKAKGQPREPQVYTLPPSRDELTKNQVSLTCLVKGFYPSDIAVEWESNGQPENNYKTTPPVLDSDGSFFLYSKLTVDKSRWQQGNVFSCSVMHEALHNHYTQKSLSLSPGK
notes: TACI-BCMA fusion protein; also called TACI-T2-BCMA-ECD-Fc
Regarding B3, the “EC50 relative to telitacicept” value in assay [4] stood at 0.5 fold; in assay [7], 0.333 fold. For the same molecule, the EC50 came to 0.352 nM in assay [5] and 0.264 nM in assay [6]. Further, the Emax in assay [5] is 2.43 nM (as printed); in assay [6], 2.78.
